US20230391881A1 (UNIVERSITY OF VIRGINIA PATENT FOUNDATION, published 2023)

How the values were obtained:
[1] = target: T1, FOLR1 (UniProt P15328 25-234); assay: immunoprecipitation, immunoblot with commercial FOLR1 antibody (FIG. 14C)
T1 construct: also called folate receptor alpha

[2] = target: T2, Chi-G4S-DR5 (chimeric DR5: human DR5 extracellular domain, G4S linker, mouse DR5 transmembrane and … (chimeric: human DR5 ECD, mouse DR5 TM …)); assay: flow cytometry on Chi-G4S-DR5 stable 4T1 cells (FIG. 15A)
T2 construct: Stably expressed on murine 4T1 cells; also called Chimeric human-mouse DR5 G4S

T1 sequence (P15328 25-234 limits assumed): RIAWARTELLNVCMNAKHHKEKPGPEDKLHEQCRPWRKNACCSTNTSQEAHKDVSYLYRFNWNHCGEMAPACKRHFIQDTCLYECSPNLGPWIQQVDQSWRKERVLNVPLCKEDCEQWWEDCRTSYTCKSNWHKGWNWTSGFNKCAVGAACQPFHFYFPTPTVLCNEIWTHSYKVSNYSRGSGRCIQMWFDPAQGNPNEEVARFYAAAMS

B1: Farletuzumab (antibody, V domains shown)
VH: EVQLVESGGGVVQPGRSLRLSCSASGFTFSGYGLSWVRQAPGKGLEWVAMISSGGSYTYYADSVKGRFAISRDNAKNTLFLQMDSLRPEDTGVYFCARHGDDPAWFAYWGQGTPVTVSS
VL: DIQLTQSPSSLSASVGDRVTITCSVSSSISSNNLHWYQQKPGKAPKPWIYGTSNLASGVPSRFSGSGSGTDYTFTISSLQPEDIATYYCQQWSSYPYMYTFGQGTKVEIKR
notes: also called clinical anti-FOLR1, farletuzumab
[1]
  binding result: binds

B2: Tigatuzumab (antibody, human IgG1, kappa, L234A L235A, V domains shown)
VH: EVQLVESGGGLVQPGGSLRLSCAASGFTFSSYVMSWVRQAPGKGLEWVATISSGGSYTYYPDSVKGRFTISRDNAKNTLYLQMNSLRAEDTAVYYCARRGDSMITTDYWGQGTLVTVSS
VL: DIQMTQSPSSLSASVGDRVTITCKASQDVGTAVAWYQQKPGKAPKLLIYWASTRHTGVPSRFSGSGSGTDFTLTISSLQPEDFATYYCQQYSSYRTFGQGTKVEIKR
notes: also called clinical tigatuzumab antibody
[2]
  binding result: binds
